Test results taken from patent US20260209358A1.

T1: CD37 on CD37+ target tumor cells (Daudi or Ramos cells) (UniProt P11049)
T1 sequence (looked up): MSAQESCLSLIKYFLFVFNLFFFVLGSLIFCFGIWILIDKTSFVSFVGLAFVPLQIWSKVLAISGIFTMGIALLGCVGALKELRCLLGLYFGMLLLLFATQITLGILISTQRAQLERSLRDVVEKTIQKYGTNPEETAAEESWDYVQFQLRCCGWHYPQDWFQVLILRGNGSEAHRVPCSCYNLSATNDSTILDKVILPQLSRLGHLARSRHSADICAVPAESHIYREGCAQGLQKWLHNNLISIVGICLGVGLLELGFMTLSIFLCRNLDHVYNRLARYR

B1: Naratuximab IgG (parent CD37 IgG) (antibody, V domains shown)
VH: QVQVQESGPGLVAPSQTLSITCTVSGFSLTTSGVSWVRQPPGKGLEWLGVIWGDGSTNYHPSLKSRLSIKKDHSKSQVFLKLNSLTAADTATYYCAKGGYSLAHWGQGTLVTVSS
VL: DIQMTQSPSSLSVSVGERVTITCRASENIRSNLAWYQQKPGKSPKLLVNVATNLADGVPSRFSGSGSGTDYSLKINSLQPEDFGTYYCQHYWGTTWTFGQGTKLEIKR
B2: 016-H5L2 IgG (parent CD37 IgG) (antibody, V domains shown)
VH: EVQLVESGGGLVQPGGSLRLSCAASGFSLSNYNMGWVRQAPGKGLEWVSVIDASGTTYYATWAKGRFTISRDNSKNTLYLQMNSLRAEDTATYYCARELLYFGSSYYDLWGQGTLVTVSS
VL: DVVMTQSPSTLSASVGDRVTITCQASQNIDSNLAWYQQKPGKAPKFLIYYASNLPFGVPSRFKGSGSGTEFTLTISSLQPDDFATYYCQSADVGSTYVAAFGGGTKVEIK
B3: Naratuximab × NKp46-1 H1L1 CD37/NKp46 bispecific MB (protein, part only; not given: Fab constants, linkers, ferritin, scFc, not shown: another chain or arm of the molecule; large carriers; small tags and cut ends)
VH 1: QVQLVQSGAEVKKPGSSVKVSCKASGYTFSDYVINWVRQAPGQGLEWMGEIYPGSGTNYYNEKFKAKATITADKSTSTAYMELSSLRSEDTAVYYCARRGRYGLYAMDYWGQGTTVTVSS
VL 1: DIQMTQSPSSLSASVGDRVTITCRASQDISNYLNWYQQKPGKAPKLLIYYTSRLHSGVPSRFSGSGSGTDFTFTISSLQPEDIATYFCQQGNTRPWTFGGGTKVEIK
VH 2: QVQVQESGPGLVAPSQTLSITCTVSGFSLTTSGVSWVRQPPGKGLEWLGVIWGDGSTNYHPSLKSRLSIKKDHSKSQVFLKLNSLTAADTATYYCAKGGYSLAHWGQGTLVTVSS
VL 2: DIQMTQSPSSLSVSVGERVTITCRASENIRSNLAWYQQKPGKSPKLLVNVATNLADGVPSRFSGSGSGTDYSLKINSLQPEDFGTYYCQHYWGTTWTFGQGTKLEIK
B4: Naratuximab × NKp46-2 H1L1 CD37/NKp46 bispecific MB (protein, part only; not given: Fab constants, linkers, ferritin, scFc, not shown: another chain or arm of the molecule; large carriers; small tags and cut ends)
VH 1: QVQLQESGPGLVKPSQTLSLTCTVSGYSISSDYAWNWIRQPPGKGLEWIGYITYSGSTSYNPSLESRVTISRDTSKNQFSLKLSSVTAADTAVYYCARGGYYGSSWGVFAYWGQGTLVTVSS
VL 1: DIQMTQSPSSLSASVGDRVTITCRVSENIYSYLAWYQQKPGKAPKLLVYNAKTLAEGVPSRFSGSGSGTDFTLTISSLQPEDFATYYCQHHYGTPWTFGGGTKVEIK
VH 2: QVQVQESGPGLVAPSQTLSITCTVSGFSLTTSGVSWVRQPPGKGLEWLGVIWGDGSTNYHPSLKSRLSIKKDHSKSQVFLKLNSLTAADTATYYCAKGGYSLAHWGQGTLVTVSS
VL 2: DIQMTQSPSSLSVSVGERVTITCRASENIRSNLAWYQQKPGKSPKLLVNVATNLADGVPSRFSGSGSGTDYSLKINSLQPEDFGTYYCQHYWGTTWTFGQGTKLEIK
B5: Naratuximab × NKp46-4 H1L2 CD37/NKp46 bispecific MB (protein, part only; not given: Fab constants, linkers, ferritin, scFc, not shown: another chain or arm of the molecule; large carriers; small tags and cut ends)
VH 1: QVQLVQSGAEVKKPGASVKVSCKASGYTFTSFTMHWVRQAPGQGLEWIGYINPSSGYTEYNQKFKDRVTITADKSTSTAYMELSSLRSEDTAVYYCVRGSSRGFDYWGQGTLVTVSS
VL 1: DIQMTQSPSSLSASVGDRVTITCRASENIYSNLAWFQQKPGKAPKLLVYAATNLADGVPSRFSGSGSGTDYTLTISSLQPEDFATYYCQHFWGTPRTFGGGTKVEIK
VH 2: QVQVQESGPGLVAPSQTLSITCTVSGFSLTTSGVSWVRQPPGKGLEWLGVIWGDGSTNYHPSLKSRLSIKKDHSKSQVFLKLNSLTAADTATYYCAKGGYSLAHWGQGTLVTVSS
VL 2: DIQMTQSPSSLSVSVGERVTITCRASENIRSNLAWYQQKPGKSPKLLVNVATNLADGVPSRFSGSGSGTDYSLKINSLQPEDFGTYYCQHYWGTTWTFGQGTKLEIK
B6: Naratuximab × NKp46 09 CD37/NKp46 bispecific MB (protein, part only; not given: Fab constants, linkers, ferritin, scFc, not shown: another chain or arm of the molecule; large carriers; small tags and cut ends)
VH 1: EVQLQQSGAEVKKPGSSVKVSCKTSGYTFTEYSMHWVRQAPGKSLEWFGGISPNSGGTSYNQKFKGRATLTVDKSSSTAYMELSSLRSEDTAVYYCARRDFHSSFDYWGQGTTVTVSS
VL 1: DIVMTQSPATLSLSPGERATLSCRASQSISDYLHWFQQKPHESPRLLIKYASQSISGIPARFSGSGSGSDFTLTISSLEPEDFAVYYCQNGHSFPLTFGPGTKVDIK
VH 2: QVQVQESGPGLVAPSQTLSITCTVSGFSLTTSGVSWVRQPPGKGLEWLGVIWGDGSTNYHPSLKSRLSIKKDHSKSQVFLKLNSLTAADTATYYCAKGGYSLAHWGQGTLVTVSS
VL 2: DIQMTQSPSSLSVSVGERVTITCRASENIRSNLAWYQQKPGKSPKLLVNVATNLADGVPSRFSGSGSGTDYSLKINSLQPEDFGTYYCQHYWGTTWTFGQGTKLEIK
B7: 016-H5L2 × NKp46-1 H1L1 CD37/NKp46 bispecific MB (protein, part only; not given: Fab constants, linkers, ferritin, scFc, not shown: another chain or arm of the molecule; large carriers; small tags and cut ends)
VH 1: EVQLVESGGGLVQPGGSLRLSCAASGFSLSNYNMGWVRQAPGKGLEWVSVIDASGTTYYATWAKGRFTISRDNSKNTLYLQMNSLRAEDTATYYCARELLYFGSSYYDLWGQGTLVTVSS
VL 1: DVVMTQSPSTLSASVGDRVTITCQASQNIDSNLAWYQQKPGKAPKFLIYYASNLPFGVPSRFKGSGSGTEFTLTISSLQPDDFATYYCQSADVGSTYVAAFGGGTKVEIK
VH 2: QVQLVQSGAEVKKPGSSVKVSCKASGYTFSDYVINWVRQAPGQGLEWMGEIYPGSGTNYYNEKFKAKATITADKSTSTAYMELSSLRSEDTAVYYCARRGRYGLYAMDYWGQGTTVTVSS
VL 2: DIQMTQSPSSLSASVGDRVTITCRASQDISNYLNWYQQKPGKAPKLLIYYTSRLHSGVPSRFSGSGSGTDFTFTISSLQPEDIATYFCQQGNTRPWTFGGGTKVEIK
modifications: The variable domains sit in single-chain Fabs fused to human ferritin light chain. The NKp46 chain also carries a C-terminal scFc. The chains form a self-assembled multivalent nanocage.
B8: 016-H5L2 × NKp46-2 H1L1 CD37/NKp46 bispecific MB (protein, part only; not given: Fab constants, linkers, ferritin, scFc, not shown: another chain or arm of the molecule; large carriers; small tags and cut ends)
VH 1: EVQLVESGGGLVQPGGSLRLSCAASGFSLSNYNMGWVRQAPGKGLEWVSVIDASGTTYYATWAKGRFTISRDNSKNTLYLQMNSLRAEDTATYYCARELLYFGSSYYDLWGQGTLVTVSS
VL 1: DVVMTQSPSTLSASVGDRVTITCQASQNIDSNLAWYQQKPGKAPKFLIYYASNLPFGVPSRFKGSGSGTEFTLTISSLQPDDFATYYCQSADVGSTYVAAFGGGTKVEIK
VH 2: QVQLQESGPGLVKPSQTLSLTCTVSGYSISSDYAWNWIRQPPGKGLEWIGYITYSGSTSYNPSLESRVTISRDTSKNQFSLKLSSVTAADTAVYYCARGGYYGSSWGVFAYWGQGTLVTVSS
VL 2: DIQMTQSPSSLSASVGDRVTITCRVSENIYSYLAWYQQKPGKAPKLLVYNAKTLAEGVPSRFSGSGSGTDFTLTISSLQPEDFATYYCQHHYGTPWTFGGGTKVEIK
modifications: The variable domains sit in single-chain Fabs fused to human ferritin light chain. The NKp46 chain also carries a C-terminal scFc. The chains form a self-assembled multivalent nanocage.
B9: 016-H5L2 × NKp46-4 H1L2 CD37/NKp46 bispecific MB (protein, part only; not given: Fab constants, linkers, ferritin, scFc, not shown: another chain or arm of the molecule; large carriers; small tags and cut ends)
VH 1: EVQLVESGGGLVQPGGSLRLSCAASGFSLSNYNMGWVRQAPGKGLEWVSVIDASGTTYYATWAKGRFTISRDNSKNTLYLQMNSLRAEDTATYYCARELLYFGSSYYDLWGQGTLVTVSS
VL 1: DVVMTQSPSTLSASVGDRVTITCQASQNIDSNLAWYQQKPGKAPKFLIYYASNLPFGVPSRFKGSGSGTEFTLTISSLQPDDFATYYCQSADVGSTYVAAFGGGTKVEIK
VH 2: QVQLVQSGAEVKKPGASVKVSCKASGYTFTSFTMHWVRQAPGQGLEWIGYINPSSGYTEYNQKFKDRVTITADKSTSTAYMELSSLRSEDTAVYYCVRGSSRGFDYWGQGTLVTVSS
VL 2: DIQMTQSPSSLSASVGDRVTITCRASENIYSNLAWFQQKPGKAPKLLVYAATNLADGVPSRFSGSGSGTDYTLTISSLQPEDFATYYCQHFWGTPRTFGGGTKVEIK
modifications: The variable domains sit in single-chain Fabs fused to human ferritin light chain. The NKp46 chain also carries a C-terminal scFc. The chains form a self-assembled multivalent nanocage.
B10: 016-H5L2 × NKp46 09 CD37/NKp46 bispecific MB (protein, part only; not given: Fab constants, linkers, ferritin, scFc, not shown: another chain or arm of the molecule; large carriers; small tags and cut ends)
VH 1: EVQLVESGGGLVQPGGSLRLSCAASGFSLSNYNMGWVRQAPGKGLEWVSVIDASGTTYYATWAKGRFTISRDNSKNTLYLQMNSLRAEDTATYYCARELLYFGSSYYDLWGQGTLVTVSS
VL 1: DVVMTQSPSTLSASVGDRVTITCQASQNIDSNLAWYQQKPGKAPKFLIYYASNLPFGVPSRFKGSGSGTEFTLTISSLQPDDFATYYCQSADVGSTYVAAFGGGTKVEIK
VH 2: EVQLQQSGAEVKKPGSSVKVSCKTSGYTFTEYSMHWVRQAPGKSLEWFGGISPNSGGTSYNQKFKGRATLTVDKSSSTAYMELSSLRSEDTAVYYCARRDFHSSFDYWGQGTTVTVSS
VL 2: DIVMTQSPATLSLSPGERATLSCRASQSISDYLHWFQQKPHESPRLLIKYASQSISGIPARFSGSGSGSDFTLTISSLEPEDFAVYYCQNGHSFPLTFGPGTKVDIK
modifications: The variable domains sit in single-chain Fabs fused to human ferritin light chain. The NKp46 chain also carries a C-terminal scFc. The chains form a self-assembled multivalent nanocage.

What was measured:
[1] = biological target: T1, CD37 on CD37+ target tumor cells (Daudi or Ramos cells); experiment: cell-based or functional assay
[2] = biological target: hNKp46-His (extracellular domain of hNKp46 with a C-terminal polyhistidine tag) (human) (UniProt O76036); experiment: BLI (Octet RED96), hNKp46-His on Ni-NTA biosensors, MB in solution, 1:1 fit
UniProt O76036, sequence (O76036 22-258): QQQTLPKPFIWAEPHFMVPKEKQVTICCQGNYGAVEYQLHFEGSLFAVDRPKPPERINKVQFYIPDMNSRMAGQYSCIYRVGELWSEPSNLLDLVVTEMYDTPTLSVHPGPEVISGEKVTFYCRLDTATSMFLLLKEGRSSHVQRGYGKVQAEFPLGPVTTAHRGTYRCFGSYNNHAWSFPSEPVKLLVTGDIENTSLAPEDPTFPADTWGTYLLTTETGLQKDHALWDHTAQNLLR

| Binder | EC50 of ADCC (calcein release) on Ramos cells with primary human NK cells [1] [pM] | EC50 of ADCP on Ramos cells with THP-1 effector cells [1] [pM] | EC50 of CDC (PI+ cells) on Daudi cells with normal human serum [1] [pM] | EC50 of apoptosis (Annexin-V+ cells, flow cytometry) on Daudi cells [1] [pM] | Kd [2] [pM] | koff [2] [s⁻¹] | kon [2] [M⁻¹ s⁻¹] |
| --- | --- | --- | --- | --- | --- | --- | --- |
| B1 | 5.97 | 37.4 | 450 | – | – | – | – |
| B2 | 8.34 | 21.4 | – | – | – | – | – |
| B3 | 0.316 | – | – | 54 | < 1 | < 1e-07 | 3.65e+06 |
| B4 | 0.374 | – | – | 32 | < 1 | < 1e-07 | 2.2e+06 |
| B5 | 0.777 | – | – | 73 | 17.5 | 3.42e-05 | 1.96e+06 |
| B6 | 0.843 | – | – | – | < 1 | < 1e-07 | 1.63e+06 |
| B7 | 1.2 | – | – | 102 | < 1 | < 1e-07 | 2.15e+06 |
| B8 | 2.91 | – | – | – | < 1 | < 1e-07 | 1.25e+06 |
| B9 | 3.73 | – | – | 142 | < 1 | < 1e-07 | 1.67e+06 |
| B10 | 2.72 | – | – | – | < 1 | < 1e-07 | 1.06e+06 |
